According to patent WO2011161970A1 (dated 2011):

Assays:
[1] = biological target: T1, human PDGFRα-Fc fusion protein (PDGFRα extracellular region [1-514 amino acids] and mouse IgG2a constant … (human; mouse, UniProt P16234 24-514); assay: EIA, PDGFRα-Fc immobilised on plate, serially diluted COS-1 culture supernatant
T1 construct: not shown: mouse IgG2a constant region

[2] = biological target: T1, human PDGFRα-Fc fusion protein (PDGFRα …); assay: EIA, PDGFRα-Fc immobilised on plate, serially diluted COS-1 culture supernatant, anti-human IgG constant region HRP detection

T1 sequence (P16234 24-514 limits assumed): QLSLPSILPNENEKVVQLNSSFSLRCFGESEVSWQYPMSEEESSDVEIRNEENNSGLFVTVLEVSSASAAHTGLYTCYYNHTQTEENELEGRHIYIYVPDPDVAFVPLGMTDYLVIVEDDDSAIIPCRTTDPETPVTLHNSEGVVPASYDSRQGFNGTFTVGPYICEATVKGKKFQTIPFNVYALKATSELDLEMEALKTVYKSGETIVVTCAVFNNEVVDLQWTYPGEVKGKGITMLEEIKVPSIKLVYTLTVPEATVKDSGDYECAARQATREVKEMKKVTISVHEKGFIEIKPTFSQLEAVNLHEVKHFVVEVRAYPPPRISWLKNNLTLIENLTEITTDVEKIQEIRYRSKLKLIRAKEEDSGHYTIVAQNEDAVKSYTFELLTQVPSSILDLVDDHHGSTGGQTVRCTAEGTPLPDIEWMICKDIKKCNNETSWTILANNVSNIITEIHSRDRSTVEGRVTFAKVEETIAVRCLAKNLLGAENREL

Binder	binding result [1]	binding result [2]
21A1 antibody (mouse anti-human PDGFRα monoclonal antibody, clone number 21A1) (antibody, V domains shown, no cleavage site is stated; also called monoclonal antibody 21A1; hPDGFRα(21A1) MoAb) VH: EVKLLESGGGLVQPGGSLKLSCAASGFDFSIFWMSWVRQAPGKGLEWIGEINPDSSTINYTPSLKDKFIISRDNAKNTLYLQMSKVRSEDTALYFCARQRFGPYWGQGTLVTVSA VL: DIVMTQSHKFMSTSVGDRVSITCKASQDVSTAVAWYQQKPGQSPNLLIYSASYRYTGVPDRFTGSGSGTDFTFTISSVQAEDLAVYYCQQYYSTPYTFGGGTKLEIKR	binds	–
24A1 antibody (mouse anti-human PDGFRα monoclonal antibody, clone number 24A1) (antibody, V domains shown, no cleavage site is stated; also called monoclonal antibody 24A1; mouse anti-PDGFRα antibody (24A1 antibody)) VH: DVQLQESGPGLVKPSQSLSLTCTVTGYSITSDYAWNWIRQFPGNKLEWVGYISYSGSTSYNPSLKSRISITRDTSKNQFFLQLNSVTTEDTATYYCARRDYRYGYWYFDVWGAGTTVTVSS VL: DIQMNQSPSSLSASLGDTITITCHASQNIHVWLTWYQQKPGNIPKLLIYKASNLHTGVPSRFSGSGSGTGFTLTISSLQPEDIATYYCQQGQSYPWTFGGGTKLEIKR	binds	–
humanized anti-PDGFRα antibody (24A1) (antibody, human IgG1, kappa, V domains shown, also called humanized 24A1 antibody; Hu PDGFRa (24A1)) VH: DVQLQESGPGLVKPSQTLSLTCTVSGYSITSDYAWNWIRQPPGKGLEWVGYISYSGSTSYNPSLKSRISITRDTSKNQFSLKLSSVTAADTAVYYCARRDYRYGYWYFDVWGAGTTVTVSS VL: DIQMNQSPSSVSASVGDRVTITCHASQNIHVWLTWYQQKPGKAPKLLIYKASNLHTGVPSRFSGSGSGTDFTLTISSLQPEDFATYYCQQGQSYPWTFGGGTKLEIKR	–	binds
